Test results: patent publication US20140087995A1 (published 2014)
Numbered stars: 1 amine (or outer) side, 2 acyl side, 3 side chain; on linkers, the order of the positions; unused ones are H or OH. Bridge positions count the residues as written; N and C are the ends. Side chains are listed from the residue outwards. Ends that are not written are not given here. * marks the point of attachment. C20 diacid = O=C(O)CCCCCCCCCCCCCCCCCCC(=O)*; γGlu = O=C(O)[C@H](CCC(=O)[*:2])N[*:1]; AEEA = NCCOCCOCC(=O)O

T1: human calcitonin receptor (human, UniProt P30988 25-474)
T1 sequence (looked up): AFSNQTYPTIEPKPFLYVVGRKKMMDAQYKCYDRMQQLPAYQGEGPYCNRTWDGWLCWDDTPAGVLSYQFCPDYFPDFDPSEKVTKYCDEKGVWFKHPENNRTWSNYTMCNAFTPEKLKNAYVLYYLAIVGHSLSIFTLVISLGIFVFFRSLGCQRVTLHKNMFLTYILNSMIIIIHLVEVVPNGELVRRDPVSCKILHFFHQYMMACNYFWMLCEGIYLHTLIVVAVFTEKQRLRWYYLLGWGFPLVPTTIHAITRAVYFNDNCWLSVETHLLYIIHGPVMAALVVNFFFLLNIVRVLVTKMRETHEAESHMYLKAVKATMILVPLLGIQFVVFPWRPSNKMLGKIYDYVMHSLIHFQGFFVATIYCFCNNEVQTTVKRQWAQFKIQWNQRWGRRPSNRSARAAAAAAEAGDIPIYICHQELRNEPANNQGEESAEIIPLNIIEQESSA

B1: N^ε1-[2-[2-[2-[[(4S)-4-carboxy-4-(19-carboxynonadecanoylamino)butanoyl]amino]ethoxy]ethoxy]acetyl]-[His14,Arg17,Pro21,Pro27]-h-amylin (peptide)
peptide: K([AEEA-γGlu-C20 diacid])CNTATCATQRLAHFLRHSSPNFGAIPSSTNVGSNTY-NH2
modifications: disulfide 2-7; N-terminus assumed
SMILES: CC[C@H](C)[C@H](NC(=O)[C@H](C)NC(=O)CNC(=O)[C@H](Cc1ccccc1)NC(=O)[C@H](CC(N)=O)NC(=O)[C@@H]1CCCN1C(=O)[C@H](CO)NC(=O)[C@H](CO)NC(=O)[C@H](Cc1c[nH]cn1)NC(=O)[C@H](CCCNC(=N)N)NC(=O)[C@H](CC(C)C)NC(=O)[C@H](Cc1ccccc1)NC(=O)[C@H](Cc1c[nH]cn1)NC(=O)[C@H](C)NC(=O)[C@H](CC(C)C)NC(=O)[C@H](CCCNC(=N)N)NC(=O)[C@H](CCC(N)=O)NC(=O)[C@@H](NC(=O)[C@H](C)NC(=O)[C@@H]1CSSC[C@H](NC(=O)[C@@H](N)CCCCNC(=O)COCCOCCNC(=O)CC[C@H](NC(=O)CCCCCCCCCCCCCCCCCCC(=O)O)C(=O)O)C(=O)N[C@@H](CC(N)=O)C(=O)N[C@@H]([C@@H](C)O)C(=O)N[C@@H](C)C(=O)N[C@@H]([C@@H](C)O)C(=O)N1)[C@@H](C)O)C(=O)N1CCC[C@H]1C(=O)N[C@@H](CO)C(=O)N[C@@H](CO)C(=O)N[C@H](C(=O)N[C@@H](CC(N)=O)C(=O)N[C@H](C(=O)NCC(=O)N[C@@H](CO)C(=O)N[C@@H](CC(N)=O)C(=O)N[C@H](C(=O)N[C@@H](Cc1ccc(O)cc1)C(N)=O)[C@@H](C)O)C(C)C)[C@@H](C)O
notes: analogue of human amylin; also called compound 69
B2: N^ε1-[2-[2-[2-[[(4S)-4-carboxy-4-(19-carboxynonadecanoylamino)butanoyl]amino]ethoxy]ethoxy]acetyl]-[Ser14,Arg17,Pro21,Pro27,Pro31]-h-amylin (peptide)
peptide: K([AEEA-γGlu-C20 diacid])CNTATCATQRLASFLRHSSPNFGAIPSSTPVGSNTY-NH2
modifications: disulfide 2-7; N-terminus assumed
SMILES: CC[C@H](C)[C@H](NC(=O)[C@H](C)NC(=O)CNC(=O)[C@H](Cc1ccccc1)NC(=O)[C@H](CC(N)=O)NC(=O)[C@@H]1CCCN1C(=O)[C@H](CO)NC(=O)[C@H](CO)NC(=O)[C@H](Cc1c[nH]cn1)NC(=O)[C@H](CCCNC(=N)N)NC(=O)[C@H](CC(C)C)NC(=O)[C@H](Cc1ccccc1)NC(=O)[C@H](CO)NC(=O)[C@H](C)NC(=O)[C@H](CC(C)C)NC(=O)[C@H](CCCNC(=N)N)NC(=O)[C@H](CCC(N)=O)NC(=O)[C@@H](NC(=O)[C@H](C)NC(=O)[C@@H]1CSSC[C@H](NC(=O)[C@@H](N)CCCCNC(=O)COCCOCCNC(=O)CC[C@H](NC(=O)CCCCCCCCCCCCCCCCCCC(=O)O)C(=O)O)C(=O)N[C@@H](CC(N)=O)C(=O)N[C@@H]([C@@H](C)O)C(=O)N[C@@H](C)C(=O)N[C@@H]([C@@H](C)O)C(=O)N1)[C@@H](C)O)C(=O)N1CCC[C@H]1C(=O)N[C@@H](CO)C(=O)N[C@@H](CO)C(=O)N[C@H](C(=O)N1CCC[C@H]1C(=O)N[C@H](C(=O)NCC(=O)N[C@@H](CO)C(=O)N[C@@H](CC(N)=O)C(=O)N[C@H](C(=O)N[C@@H](Cc1ccc(O)cc1)C(N)=O)[C@@H](C)O)C(C)C)[C@@H](C)O
notes: analogue of human amylin; also called compound 73
B3: N^ε1-[(4S)-4-carboxy-4-(19-carboxynonadecanoylamino)butanoyl]-[Arg14,Arg17,Pro21,Pro27,Pro31]-h-amylin (peptide)
peptide: K([γGlu-C20 diacid])CNTATCATQRLARFLRHSSPNFGAIPSSTPVGSNTY-NH2
modifications: disulfide 2-7; N-terminus assumed
SMILES: CC[C@H](C)[C@H](NC(=O)[C@H](C)NC(=O)CNC(=O)[C@H](Cc1ccccc1)NC(=O)[C@H](CC(N)=O)NC(=O)[C@@H]1CCCN1C(=O)[C@H](CO)NC(=O)[C@H](CO)NC(=O)[C@H](Cc1c[nH]cn1)NC(=O)[C@H](CCCNC(=N)N)NC(=O)[C@H](CC(C)C)NC(=O)[C@H](Cc1ccccc1)NC(=O)[C@H](CCCNC(=N)N)NC(=O)[C@H](C)NC(=O)[C@H](CC(C)C)NC(=O)[C@H](CCCNC(=N)N)NC(=O)[C@H](CCC(N)=O)NC(=O)[C@@H](NC(=O)[C@H](C)NC(=O)[C@@H]1CSSC[C@H](NC(=O)[C@@H](N)CCCCNC(=O)CC[C@H](NC(=O)CCCCCCCCCCCCCCCCCCC(=O)O)C(=O)O)C(=O)N[C@@H](CC(N)=O)C(=O)N[C@@H]([C@@H](C)O)C(=O)N[C@@H](C)C(=O)N[C@@H]([C@@H](C)O)C(=O)N1)[C@@H](C)O)C(=O)N1CCC[C@H]1C(=O)N[C@@H](CO)C(=O)N[C@@H](CO)C(=O)N[C@H](C(=O)N1CCC[C@H]1C(=O)N[C@H](C(=O)NCC(=O)N[C@@H](CO)C(=O)N[C@@H](CC(N)=O)C(=O)N[C@H](C(=O)N[C@@H](Cc1ccc(O)cc1)C(N)=O)[C@@H](C)O)C(C)C)[C@@H](C)O
notes: analogue of human amylin; also called compound 63
B4: N^ε1-[2-[2-[2-[[(4S)-4-carboxy-4-(19-carboxynonadecanoylamino)butanoyl]amino]ethoxy]ethoxy]acetyl]-[Thr14,Arg17,Pro21,Pro27,Pro31]-h-amylin (peptide)
peptide: K([AEEA-γGlu-C20 diacid])CNTATCATQRLATFLRHSSPNFGAIPSSTPVGSNTY-NH2
modifications: disulfide 2-7; N-terminus assumed
SMILES: CC[C@H](C)[C@H](NC(=O)[C@H](C)NC(=O)CNC(=O)[C@H](Cc1ccccc1)NC(=O)[C@H](CC(N)=O)NC(=O)[C@@H]1CCCN1C(=O)[C@H](CO)NC(=O)[C@H](CO)NC(=O)[C@H](Cc1c[nH]cn1)NC(=O)[C@H](CCCNC(=N)N)NC(=O)[C@H](CC(C)C)NC(=O)[C@H](Cc1ccccc1)NC(=O)[C@@H](NC(=O)[C@H](C)NC(=O)[C@H](CC(C)C)NC(=O)[C@H](CCCNC(=N)N)NC(=O)[C@H](CCC(N)=O)NC(=O)[C@@H](NC(=O)[C@H](C)NC(=O)[C@@H]1CSSC[C@H](NC(=O)[C@@H](N)CCCCNC(=O)COCCOCCNC(=O)CC[C@H](NC(=O)CCCCCCCCCCCCCCCCCCC(=O)O)C(=O)O)C(=O)N[C@@H](CC(N)=O)C(=O)N[C@@H]([C@@H](C)O)C(=O)N[C@@H](C)C(=O)N[C@@H]([C@@H](C)O)C(=O)N1)[C@@H](C)O)[C@@H](C)O)C(=O)N1CCC[C@H]1C(=O)N[C@@H](CO)C(=O)N[C@@H](CO)C(=O)N[C@H](C(=O)N1CCC[C@H]1C(=O)N[C@H](C(=O)NCC(=O)N[C@@H](CO)C(=O)N[C@@H](CC(N)=O)C(=O)N[C@H](C(=O)N[C@@H](Cc1ccc(O)cc1)C(N)=O)[C@@H](C)O)C(C)C)[C@@H](C)O
notes: analogue of human amylin; also called compound 75
B5: N^ε1-[2-[2-[2-[[(4S)-4-carboxy-4-(19-carboxynonadecanoylamino)butanoyl]amino]ethoxy]ethoxy]acetyl]-[Lys14,Arg17,Pro21,Pro27,Pro31]-h-amylin (peptide)
peptide: K([AEEA-γGlu-C20 diacid])CNTATCATQRLAKFLRHSSPNFGAIPSSTPVGSNTY-NH2
modifications: disulfide 2-7; N-terminus assumed
SMILES: CC[C@H](C)[C@H](NC(=O)[C@H](C)NC(=O)CNC(=O)[C@H](Cc1ccccc1)NC(=O)[C@H](CC(N)=O)NC(=O)[C@@H]1CCCN1C(=O)[C@H](CO)NC(=O)[C@H](CO)NC(=O)[C@H](Cc1c[nH]cn1)NC(=O)[C@H](CCCNC(=N)N)NC(=O)[C@H](CC(C)C)NC(=O)[C@H](Cc1ccccc1)NC(=O)[C@H](CCCCN)NC(=O)[C@H](C)NC(=O)[C@H](CC(C)C)NC(=O)[C@H](CCCNC(=N)N)NC(=O)[C@H](CCC(N)=O)NC(=O)[C@@H](NC(=O)[C@H](C)NC(=O)[C@@H]1CSSC[C@H](NC(=O)[C@@H](N)CCCCNC(=O)COCCOCCNC(=O)CC[C@H](NC(=O)CCCCCCCCCCCCCCCCCCC(=O)O)C(=O)O)C(=O)N[C@@H](CC(N)=O)C(=O)N[C@@H]([C@@H](C)O)C(=O)N[C@@H](C)C(=O)N[C@@H]([C@@H](C)O)C(=O)N1)[C@@H](C)O)C(=O)N1CCC[C@H]1C(=O)N[C@@H](CO)C(=O)N[C@@H](CO)C(=O)N[C@H](C(=O)N1CCC[C@H]1C(=O)N[C@H](C(=O)NCC(=O)N[C@@H](CO)C(=O)N[C@@H](CC(N)=O)C(=O)N[C@H](C(=O)N[C@@H](Cc1ccc(O)cc1)C(N)=O)[C@@H](C)O)C(C)C)[C@@H](C)O
notes: analogue of human amylin; also called compound 74
B6: N^ε1-[(4S)-4-carboxy-4-(19-carboxynonadecanoylamino)butanoyl]-[Arg14,Arg17,Pro21,Pro27,Pro34]-h-amylin (peptide)
peptide: K([γGlu-C20 diacid])CNTATCATQRLARFLRHSSPNFGAIPSSTNVGPNTY-NH2
modifications: disulfide 2-7; N-terminus assumed
SMILES: CC[C@H](C)[C@H](NC(=O)[C@H](C)NC(=O)CNC(=O)[C@H](Cc1ccccc1)NC(=O)[C@H](CC(N)=O)NC(=O)[C@@H]1CCCN1C(=O)[C@H](CO)NC(=O)[C@H](CO)NC(=O)[C@H](Cc1c[nH]cn1)NC(=O)[C@H](CCCNC(=N)N)NC(=O)[C@H](CC(C)C)NC(=O)[C@H](Cc1ccccc1)NC(=O)[C@H](CCCNC(=N)N)NC(=O)[C@H](C)NC(=O)[C@H](CC(C)C)NC(=O)[C@H](CCCNC(=N)N)NC(=O)[C@H](CCC(N)=O)NC(=O)[C@@H](NC(=O)[C@H](C)NC(=O)[C@@H]1CSSC[C@H](NC(=O)[C@@H](N)CCCCNC(=O)CC[C@H](NC(=O)CCCCCCCCCCCCCCCCCCC(=O)O)C(=O)O)C(=O)N[C@@H](CC(N)=O)C(=O)N[C@@H]([C@@H](C)O)C(=O)N[C@@H](C)C(=O)N[C@@H]([C@@H](C)O)C(=O)N1)[C@@H](C)O)C(=O)N1CCC[C@H]1C(=O)N[C@@H](CO)C(=O)N[C@@H](CO)C(=O)N[C@H](C(=O)N[C@@H](CC(N)=O)C(=O)N[C@H](C(=O)NCC(=O)N1CCC[C@H]1C(=O)N[C@@H](CC(N)=O)C(=O)N[C@H](C(=O)N[C@@H](Cc1ccc(O)cc1)C(N)=O)[C@@H](C)O)C(C)C)[C@@H](C)O
notes: analogue of human amylin; also called compound 65

These binders were tested against T1, human calcitonin receptor (assay: cell-based or functional assay).

hCTR funct. EC50	Binder
1.25 nM	B1
0.961 nM	B2
5.13 nM	B3
9.07 nM	B4
37.5 nM	B5
9.33 nM	B6
